Laboratory results as given in patent US20260007748A1 (KELONIA THERAPEUTICS, published 2026).

T1: B cell maturation antigen (BCMA) (human, UniProt Q02223 1-184)
T1 construct: BCMA as carried by RPMI-8226 (high BCMA) and Daudi (low BCMA) tumor cells; also called TNFRSF17; tumor necrosis factor receptor superfamily member 17
T1 sequence: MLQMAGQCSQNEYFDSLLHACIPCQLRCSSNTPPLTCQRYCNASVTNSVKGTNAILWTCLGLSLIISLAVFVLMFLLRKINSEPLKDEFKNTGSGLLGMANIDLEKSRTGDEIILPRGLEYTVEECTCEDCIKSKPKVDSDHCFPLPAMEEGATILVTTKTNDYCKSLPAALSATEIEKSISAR

B1: anti-BCMA CAR of recombinant lentivirus LV 12 (SEQ ID NO: 276) (other)
chain: EVQLLESGGGLVQPGGSLRLSCAASGFTFEDYAMSWFRQAPGKEREGVSAISGKGGSTYYADSVKGRFTISRDNSKNTLYLQMNSLRAEDTAVYYCAVLDEEAGAEGGYWGQGTQVTVSSTTTPAPRPPTPAPTIASQPLSLRPEACRPAAGGAVHTRGLDFACDIYIWAPLAGTCGVLLLSLVITLYCKRGRKKLLYIFKQPFMRPVQTTQEEDGCSCRFPEEEEGGCELRVKFSRSADAPAYQQGQNQLYNELNLGRREEYDVLDKRRGRDPEMGGKPRRKNPQEGLYNELQKDKMAEAYSEIGMKGERRRGKGHDGLYQGLSTATKDTYDALHMQALPPR
notes: Chimeric antigen receptor on transduced human PBMCs: anti-BCMA VHH, CD8α hinge and TM, CD137 costim, CD3ζ
B2: anti-BCMA CAR of recombinant lentivirus LV 13 (SEQ ID NO: 277) (other)
chain: EVQLLESGGGLVQPGGSLRLSCAASGFTFDRYAMSWFRQAPGKEREGVSAISTSGDSTYYADSVKGRFTISRDNSKNTLYLQMNSLRAEDTAVYYCAVLDEEAGAEGGYWGQGTQVTVSSTTTPAPRPPTPAPTIASQPLSLRPEACRPAAGGAVHTRGLDFACDIYIWAPLAGTCGVLLLSLVITLYCKRGRKKLLYIFKQPFMRPVQTTQEEDGCSCRFPEEEEGGCELRVKFSRSADAPAYQQGQNQLYNELNLGRREEYDVLDKRRGRDPEMGGKPRRKNPQEGLYNELQKDKMAEAYSEIGMKGERRRGKGHDGLYQGLSTATKDTYDALHMQALPPR
notes: Chimeric antigen receptor on transduced human PBMCs: anti-BCMA VHH, CD8α hinge and TM, CD137 costim, CD3ζ; also called LV 13.1 to LV 13.9
B3: anti-BCMA CAR of recombinant lentivirus LV 11 (SEQ ID NO: 275) (other)
chain: EVQLLESGGGLVQPGGSLRLSCAASGFTFDEYTMHWFRQAPGKEREFVSAISGGGSETYYADSVKGRFTISRDNSKNTLYLQMNSLRAEDTAVYYCAAGGEEAGVGYWGQGTQVTVSSTTTPAPRPPTPAPTIASQPLSLRPEACRPAAGGAVHTRGLDFACDIYIWAPLAGTCGVLLLSLVITLYCKRGRKKLLYIFKQPFMRPVQTTQEEDGCSCRFPEEEEGGCELRVKFSRSADAPAYQQGQNQLYNELNLGRREEYDVLDKRRGRDPEMGGKPRRKNPQEGLYNELQKDKMAEAYSEIGMKGERRRGKGHDGLYQGLSTATKDTYDALHMQALPPR
notes: as for B1
B4: anti-BCMA CAR of recombinant lentivirus LV 5 (SEQ ID NO: 263) (other)
chain: QVQLVESGGGLVKPGGSLRLSCAASGFTFSDYYMSWIRQAPGKGLEWVSYISSSGSTIYYADSVKGRFTISRDNAKNSLYLQMNSLRAEDTAVYYCARDQGNYGVDVWGQGTTVTVSSGGGGSGGGGSGGGGSGGGGSDIQMTQSPSTLSASVGDRVTITCRASQSISSWLAWYQQKPGKAPKLLIYEASSLESGVPSRFSGSGSGTEFTLTISSLQPDDFATYYCQQSDSHPITFGGGTKVEIKTTTPAPRPPTPAPTIASQPLSLRPEACRPAAGGAVHTRGLDFACDIYIWAPLAGTCGVLLLSLVITLYCKRGRKKLLYIFKQPFMRPVQTTQEEDGCSCRFPEEEEGGCELRVKFSRSADAPAYQQGQNQLYNELNLGRREEYDVLDKRRGRDPEMGGKPRRKNPQEGLYNELQKDKMAEAYSEIGMKGERRRGKGHDGLYQGLSTATKDTYDALHMQALPPR
notes: Chimeric antigen receptor on transduced human PBMCs: anti-BCMA scFv, CD8α hinge and TM, CD137 costim, CD3ζ; also called LV 5.1 to LV 5.9
B5: anti-BCMA CAR of recombinant lentivirus LV 7 (SEQ ID NO: 268) (other)
chain: DIQMTQSPSSLSASVGDRVTITCRASQSISSYLNWYQQKPGKAPKLLIYAASSLQSGVPSRFSGSGSGTDFTLTISSLQPEDFATYYCQQAHSSPITFGGGTKVEIKGGGGSGGGGSGGGGSGGGGSEVQLLESGGGLVQPGGSLRLSCAASGFTFSNYAMSWVRQAPGKGLEWVSAISGSGGSTYYADSVKGRFTISRDNSKNTLYLQMNSLRAEDTAVYYCARPGDGYYEGVYFDYWGQGTLVTVSSTTTPAPRPPTPAPTIASQPLSLRPEACRPAAGGAVHTRGLDFACDIYIWAPLAGTCGVLLLSLVITLYCKRGRKKLLYIFKQPFMRPVQTTQEEDGCSCRFPEEEEGGCELRVKFSRSADAPAYQQGQNQLYNELNLGRREEYDVLDKRRGRDPEMGGKPRRKNPQEGLYNELQKDKMAEAYSEIGMKGERRRGKGHDGLYQGLSTATKDTYDALHMQALPPR
notes: Chimeric antigen receptor on transduced human PBMCs: anti-BCMA scFv, CD8α hinge and TM, CD137 costim, CD3ζ
B6: anti-BCMA CAR of recombinant lentivirus LV 10 (SEQ ID NO: 274) (other)
chain: EVQLLESGGGLVQPGGSLRLSCAASGFTFESEAMSWYRQAPGKERELVSVITSEGSTYYADSVKGRFTISRDNSKNTLYLQMNSLRAEDTAVYYCAHIEWETRLNWGQGTQVTVSSTTTPAPRPPTPAPTIASQPLSLRPEACRPAAGGAVHTRGLDFACDIYIWAPLAGTCGVLLLSLVITLYCKRGRKKLLYIFKQPFMRPVQTTQEEDGCSCRFPEEEEGGCELRVKFSRSADAPAYQQGQNQLYNELNLGRREEYDVLDKRRGRDPEMGGKPRRKNPQEGLYNELQKDKMAEAYSEIGMKGERRRGKGHDGLYQGLSTATKDTYDALHMQALPPR
notes: as for B1
B7: anti-BCMA CAR of recombinant lentivirus LV 18 (SEQ ID NO: 283) (other)
chain: EVQLLESGGGLVQPGGSLRLSCAASGFTFSSEGMSWVRQAPGKERELVSAISGSGDHTYYADSVRGRFTISRDNSKNTLYLQMNSLRAEDTAVYYCNALEGGPTTAIQPGGPDYWGQGTQVTVSSTTTPAPRPPTPAPTIASQPLSLRPEACRPAAGGAVHTRGLDFACDIYIWAPLAGTCGVLLLSLVITLYCKRGRKKLLYIFKQPFMRPVQTTQEEDGCSCRFPEEEEGGCELRVKFSRSADAPAYQQGQNQLYNELNLGRREEYDVLDKRRGRDPEMGGKPRRKNPQEGLYNELQKDKMAEAYSEIGMKGERRRGKGHDGLYQGLSTATKDTYDALHMQALPPR
notes: as for B1
B8: anti-BCMA CAR of recombinant lentivirus LV 3 (SEQ ID NO: 259) (other)
chain: QVQLVESGGGVVQPGRSLRLSCAASGFTFSSYGMHWVRQAPGKGLEWVAVISYEGSNKYYADSVKGRFTISRDNSKNTLYLQMNSLRAEDTAVYYCARELGDGMDVWGQGTTVTVSSGGGGSGGGGSGGGGSGGGGSEIVLTQSPATLSLSPGERATLSCRASQSVSSYLAWFQQKPGQAPRLLIYDASNRATGIPARFSGSGSGTDFTLTISSLEPEDFAVYYCQQRVDLWTFGGGTKVEIKTTTPAPRPPTPAPTIASQPLSLRPEACRPAAGGAVHTRGLDFACDIYIWAPLAGTCGVLLLSLVITLYCKRGRKKLLYIFKQPFMRPVQTTQEEDGCSCRFPEEEEGGCELRVKFSRSADAPAYQQGQNQLYNELNLGRREEYDVLDKRRGRDPEMGGKPRRKNPQEGLYNELQKDKMAEAYSEIGMKGERRRGKGHDGLYQGLSTATKDTYDALHMQALPPR
notes: Chimeric antigen receptor on transduced human PBMCs: anti-BCMA scFv, CD8α hinge and TM, CD137 costim, CD3ζ; also called LV 3.1 to LV 3.9
B9: anti-BCMA CAR of recombinant lentivirus LV 1 (SEQ ID NO: 256) (other)
chain: EIVLTQSPATLSLSPGERATLSCRASQSVSSYLAWYQQKPGQAPRLLIYDASNRATGIPARFSGSGSGTDFTLTISSLEPEDFAVYYCQQRVVYPITFGGGTKVEIKGGGGSGGGGSGGGGSGGGGSQITLKESGPTLVKPTQTLTLTCTFSGFSLSTSGVGVGWIRQPPGKALEWLALIYWNDEKRYSPSLKSRLTITKDTSKNQVVLTMTNMDPVDTAVYYCARDEYGGFDIWGQGTMVTVSSTTTPAPRPPTPAPTIASQPLSLRPEACRPAAGGAVHTRGLDFACDIYIWAPLAGTCGVLLLSLVITLYCKRGRKKLLYIFKQPFMRPVQTTQEEDGCSCRFPEEEEGGCELRVKFSRSADAPAYQQGQNQLYNELNLGRREEYDVLDKRRGRDPEMGGKPRRKNPQEGLYNELQKDKMAEAYSEIGMKGERRRGKGHDGLYQGLSTATKDTYDALHMQALPPR
notes: Chimeric antigen receptor on transduced human PBMCs: anti-BCMA scFv, CD8α hinge and TM, CD137 costim, CD3ζ; Encoded with a CD8α signal peptide
B10: anti-BCMA CAR of recombinant lentivirus LV 2 (SEQ ID NO: 258) (other)
chain: EIVLTQSPATLSLSPGERATLSCRASQSVSSYLAWYQQKPGQAPRLLIYDASNRATGIPARFSGSGSGTDFTLTISSLEPEDFAVYYCQQRFDYPITFGGGTKVEIKGGGGSGGGGSGGGGSGGGGSQITLKESGPTLVKPTQTLTLTCTFSGFSLSTSGVGVGWIRQPPGKALEWLALIYWNDDKRYSPSLKSRLTITKDTSKNQVVLTMTNMDPVDTAVYYCARDEYGGFDIWGQGTMVTVSSTTTPAPRPPTPAPTIASQPLSLRPEACRPAAGGAVHTRGLDFACDIYIWAPLAGTCGVLLLSLVITLYCKRGRKKLLYIFKQPFMRPVQTTQEEDGCSCRFPEEEEGGCELRVKFSRSADAPAYQQGQNQLYNELNLGRREEYDVLDKRRGRDPEMGGKPRRKNPQEGLYNELQKDKMAEAYSEIGMKGERRRGKGHDGLYQGLSTATKDTYDALHMQALPPR
notes: as for B5
B11: anti-BCMA CAR of recombinant lentivirus LV 8 (SEQ ID NO: 270) (other)
chain: DIQMTQSPSSLSASVGDRVTITCQASQDIANYLNWYQQKPGKAPKLLIYDASNLETGVPSRFSGSGSGTDFTFTISSLQPEDIATYYCQQHFNLPLTFGGGTKVEIKGGGGSGGGGSGGGGSGGGGSQITLKESGPTLVKPTQTLTLTCTFSGFSLSTSGVGVGWIRQPPGKALEWLALIYWNDEKRYSPSLKSRLTITKDTSKNQVVLTMTNMDPVDTAVYYCAREGSHDYKSSNWFDPWGQGTLVTVSSTTTPAPRPPTPAPTIASQPLSLRPEACRPAAGGAVHTRGLDFACDIYIWAPLAGTCGVLLLSLVITLYCKRGRKKLLYIFKQPFMRPVQTTQEEDGCSCRFPEEEEGGCELRVKFSRSADAPAYQQGQNQLYNELNLGRREEYDVLDKRRGRDPEMGGKPRRKNPQEGLYNELQKDKMAEAYSEIGMKGERRRGKGHDGLYQGLSTATKDTYDALHMQALPPR
notes: Chimeric antigen receptor on transduced human PBMCs: anti-BCMA scFv, CD8α hinge and TM, CD137 costim, CD3ζ; also called LV 8.1 to LV 8.9
B12: anti-BCMA CAR of recombinant lentivirus LV 15 (SEQ ID NO: 279) (other)
chain: EVQLLESGGGLVQPGGSLRLSCAASGFTFDSYTMSWYRQAPGKERELVSAISGHGDSTYYADSVKGRFTISRDNSKNTLYLQMNSLRAEDTAVYYCTRISITTEWLAGDYWGQGTQVTVSSTTTPAPRPPTPAPTIASQPLSLRPEACRPAAGGAVHTRGLDFACDIYIWAPLAGTCGVLLLSLVITLYCKRGRKKLLYIFKQPFMRPVQTTQEEDGCSCRFPEEEEGGCELRVKFSRSADAPAYQQGQNQLYNELNLGRREEYDVLDKRRGRDPEMGGKPRRKNPQEGLYNELQKDKMAEAYSEIGMKGERRRGKGHDGLYQGLSTATKDTYDALHMQALPPR
notes: as for B1

The binders below were run against T1, B cell maturation antigen (BCMA) (assay: co-culture of transduced PBMCs with RPMI-8226 (high BCMA) or Daudi (low BCMA) cells; recognition read by IFNγ).
Experimental: PBMCs transduced with recombinant lentiviral particles comprising a viral envelope expressing a mutated VSIV-G and a non-viral membrane-bound tropism polypeptide that binds CD3 and a lentiviral vector encoding an MNDU3 promoter operably linked to a polynucleotide encoding a CD8α signal peptide and an anti-BCMA CAR and a WPRE operably linked to the 3′ prime end of the polynucleotide encoding the anti-BCMA CAR (18 anti-BCMA CARs were evaluated) were co-cultured with Daudi cells (low BCMA expression) or RPMI-8226 cells (high BCMA expression) for 24 hours. After 24 hours, IFNγ levels in co-culture supernatant were measured and plotted as a function of % anti-BCMA CAR positive cells in the co-culture.
5×10⁴ PBMCs transduced with recombinant lentiviruses LV 1 to LV 19 were co-cultured with 5×10⁴ high BCMA-expressing tumor cells (RPMI-8226) or 5×10⁴ low BCMA-expressing tumor cells (Daudi) for 24 hours. Anti-BCMA CAR activity was assessed by harvesting co-culture supernatants and measuring IFNγ levels using a Meso Scale Discovery (MSD®) assay. The percentage of anti-BCMA CAR positive cells was plotted against IFNγ levels produced in co-culture. FIG. 2D.
B1: binds.
B2: binds.
B3: binds.
B4: binds.
B5: binds.
B6: binds.
B7: binds.
B8: binds.
B9: binds.
B10: binds.
B11: binds.
B12: binds.
